Experimental findings from patent US20200270125A1 (OMEROS, published 2020) are described below.

B1: MASP-3 mAb 1G4 (mouse-human chimeric IgG4) (antibody, V domains shown)
VH: QVQLKQSGAELMKPGASVKLACKATGYTFTGYWIEWIKQRPGQGLEWIGEMLPGSGSTHYNEKFKGKATFTADTSSNTAYMQLSGLTTEDSAIYYCVRSIDYWGQGTTLTVSS
VL: DVLMTQTPLSLPVSLGEQASISCRSSQSLVQSNGNTYLHWYLQKPGQSPKLLIYKVSNRFSGVPDRFSGSGSGTDFTLKISRVEAEDLGVYFCSQSTHVPPTFGGGTKLEIKR
B2: MASP-3 mAb 10D12 (mouse-human chimeric IgG4) (antibody, V domains shown)
VH: QIQLVQSGPELKKPGETVKISCKASGYIFTSYGMSWVRQAPGKGLKWMGWINTYSGVPTYADDFKGRFAFSLETSARTPYLQINNLKNEDTATYFCARGGEAMDYWGQGTSVTVSS
VL: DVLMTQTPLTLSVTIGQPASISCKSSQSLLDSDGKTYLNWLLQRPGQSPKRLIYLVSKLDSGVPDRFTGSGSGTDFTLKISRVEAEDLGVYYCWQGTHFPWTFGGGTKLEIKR
B3: MASP-3 mAb 1F3 (mouse-human chimeric IgG4) (antibody, V domains shown)
VH: QVQLKQSGPELVKPGASVKLSCKASGYTFTSNDINWVKQRPGQGLEWIGWIYPRDGSIKYNEKFTDKATLTVDVSSSTAYMELHSLTSEDSAVYFCSGVEDSYWGQGTLVTVSS
VL: DIVMTQSPSSLAVSAGERVTMSCKSSQSLLISRTRKNYLSWYQQKPGQSPKLLIYWASTRESGVPDRFTGSGSGTDFTLTISSVQAEDLAVYYCKQSYNLYTFGGGTKLEIKR
B4: MASP-3 mAb 4D5 (mouse-human chimeric IgG4) (antibody, V domains shown)
VH: QVQLKQSGPELVKPGASVKLSCKASGYTFTTDDINWVKQRPGQGLEWIGWIYPRDDRTKYNDKFKDKATLTVDTSSNTAYMDLHSLTSEDSAVYFCSSLEDTYWGQGTLVAVSS
VL: B3 VL with R18K, S22T, I31N, S40A, T78S
B5: MASP-3 mAb 4B6 (mouse-human chimeric IgG4) (antibody, V domains shown)
VH: B3 VH with S57T, I58T, K63E, Y80F, G98S
VL: B3 VL with R18K
B6: 10D12 Parental Fab (Fab, V domains shown)
VH: B2 VH
VL: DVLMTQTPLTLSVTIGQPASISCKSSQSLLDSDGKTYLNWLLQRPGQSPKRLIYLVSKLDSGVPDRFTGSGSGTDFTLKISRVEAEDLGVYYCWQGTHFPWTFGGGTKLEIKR
notes: Monovalent Fab; also called 10D12 Fab
B7: 4D5 Parental Fab (Fab, V domains shown)
VH: B4 VH
VL: B3 VL with R18K, S22T, I31N, S40A, T78S
notes: Monovalent Fab; also called 4D5 Fab

Changes are numbered by the printed parent chain. Some results are limits rather than exact numbers.

The target in the first assay is T1, recombinant human MASP-2 (CCP1-CCP2-SP fragment) (human, UniProt O00187 298-686, limits assumed).
T1 construct: domain: CCP1-CCP2-SP fragment
T1 sequence (O00187 298-686 limits assumed): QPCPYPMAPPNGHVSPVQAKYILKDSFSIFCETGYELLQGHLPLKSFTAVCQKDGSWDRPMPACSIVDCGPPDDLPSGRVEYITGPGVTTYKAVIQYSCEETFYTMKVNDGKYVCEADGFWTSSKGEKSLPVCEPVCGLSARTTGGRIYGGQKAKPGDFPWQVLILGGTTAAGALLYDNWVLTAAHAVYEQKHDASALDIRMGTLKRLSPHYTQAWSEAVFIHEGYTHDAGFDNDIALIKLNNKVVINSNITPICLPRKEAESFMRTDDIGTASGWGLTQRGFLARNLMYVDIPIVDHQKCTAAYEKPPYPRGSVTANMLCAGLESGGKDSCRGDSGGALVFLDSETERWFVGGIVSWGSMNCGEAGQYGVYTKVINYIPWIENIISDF
In words: ELISA: recombinant MASP-2 (CCP1-CCP2-SP) coated directly on the plate, A450. As to the method:
(§1) The plate was then washed (PBS-T, 0.05%) and the candidate MASP-3 antibodies were added followed by incubation for one hour at room temperature. The plate was washed (PBS-T, 0.05%) and a detection antibody was added (mouse anti-human kappa-HRP, SouthernBiotech #9230-05) for one hour at room temperature. After another wash (PBS-T, 0.05%) the plate was developed (5 minutes) with OPT EIA TMB (BD Biosciences #555214). Absorbance reading at A450 was measured using the Spectramax M5e plate reader.
(In general: In an ELISA, binding on a coated surface is turned into a signal by an enzyme label.)
Regarding B1, the binding result is “no binding (tested: about 20 nM (log10 about 1.3))”.
The same measure, in the same setting: the value for B2 was “no binding (tested: about 20 nM (log10 about 1.3))”; that for B3 was “no binding (tested: about 20 nM (log10 about 1.3))”.
Same read-out and setting: as for B4, the entry is “no binding (tested: about 20 nM (log10 about 1.3))”; as for B5, “no binding (tested: about 20 nM (log10 about 1.3))”.

The target of another assay is T2, human MASP-3 (construct not stated) (human).
T2 chain: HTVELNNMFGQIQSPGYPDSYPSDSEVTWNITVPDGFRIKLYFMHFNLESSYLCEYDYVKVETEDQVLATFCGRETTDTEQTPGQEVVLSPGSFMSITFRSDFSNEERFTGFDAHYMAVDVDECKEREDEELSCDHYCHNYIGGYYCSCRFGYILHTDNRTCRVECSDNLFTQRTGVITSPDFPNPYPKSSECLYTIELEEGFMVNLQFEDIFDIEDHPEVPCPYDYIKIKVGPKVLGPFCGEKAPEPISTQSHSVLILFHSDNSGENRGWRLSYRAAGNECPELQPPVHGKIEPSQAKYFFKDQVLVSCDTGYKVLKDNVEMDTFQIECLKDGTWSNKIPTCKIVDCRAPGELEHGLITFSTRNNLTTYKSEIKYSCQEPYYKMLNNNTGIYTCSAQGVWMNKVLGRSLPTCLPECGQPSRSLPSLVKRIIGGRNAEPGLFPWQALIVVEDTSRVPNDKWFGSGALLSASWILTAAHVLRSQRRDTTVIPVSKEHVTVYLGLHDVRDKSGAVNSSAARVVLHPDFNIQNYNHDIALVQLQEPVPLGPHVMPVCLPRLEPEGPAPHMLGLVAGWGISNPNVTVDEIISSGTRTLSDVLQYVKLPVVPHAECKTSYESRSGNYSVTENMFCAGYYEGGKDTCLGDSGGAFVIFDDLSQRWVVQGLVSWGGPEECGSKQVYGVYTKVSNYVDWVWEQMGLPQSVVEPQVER
Kind of assay: cell-based or functional assay.
As for B1, the “Inhibition of Rabbit Erythrocyte Lysis (IC50 nM), 10% factor D-depleted human serum” value was found to be 2.7 nM.
Still for that read-out and setting: the value for B3 was 0.2 nM; that for B4 was 0.1 nM.
B5: the “Inhibition of Rabbit Erythrocyte Lysis (IC50 nM), 10% factor D-depleted human serum” value turned out to be 0.2 nM.

For another assay, the target named is T2, human MASP-3 (construct not stated). In words: cross-species binding experiments.
As for B6, the avidity was below 500 pM.
For B7, the avidity was below 500 pM.

Another assay has as its target T3, human MASP-3 CCP1-CCP2-SP fragment (human).
T3 chain: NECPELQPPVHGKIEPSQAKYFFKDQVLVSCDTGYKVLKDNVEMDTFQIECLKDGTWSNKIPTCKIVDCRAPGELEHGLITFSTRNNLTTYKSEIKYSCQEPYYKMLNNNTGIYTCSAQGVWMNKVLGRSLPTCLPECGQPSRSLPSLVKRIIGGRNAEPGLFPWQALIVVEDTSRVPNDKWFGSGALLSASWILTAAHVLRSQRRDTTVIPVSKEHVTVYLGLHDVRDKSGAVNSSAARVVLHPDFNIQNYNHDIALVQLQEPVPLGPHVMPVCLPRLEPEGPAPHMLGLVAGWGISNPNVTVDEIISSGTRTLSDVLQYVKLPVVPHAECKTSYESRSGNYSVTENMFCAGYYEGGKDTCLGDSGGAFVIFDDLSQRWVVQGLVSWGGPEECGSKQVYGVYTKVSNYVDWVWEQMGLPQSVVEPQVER
Kind of assay: cell-based or functional assay.
Regarding B1, the “inhibition of MASP-3-dependent fluorogenic tripeptide (BOC-V-P-R-AMC) cleavage” value stood at 29.6 nM.
The same measure, in the same setting: as for B2, the figure is 30.9 nM; as for B3, 33 nM.
Same read-out and setting: the value for B4 was 27.5 nM; that for B5 was 26 nM.

Another assay has as its target T2, human MASP-3 (construct not stated). In words: not described at this place.
Turning to B1, the binding affinity was at most 500 pM.
Same read-out and setting: as for B2, the figure is at most 500 pM.
For B3, the binding affinity was at most 500 pM.
Still for that read-out and setting: as for B4, the figure is at most 500 pM; as for B5, at most 500 pM.

In a further assay the target is T4, recombinant full-length mouse MASP-3 (mouse).
T4 construct: Entry is with leader; also called mouse full length MASP-3
T4 chain: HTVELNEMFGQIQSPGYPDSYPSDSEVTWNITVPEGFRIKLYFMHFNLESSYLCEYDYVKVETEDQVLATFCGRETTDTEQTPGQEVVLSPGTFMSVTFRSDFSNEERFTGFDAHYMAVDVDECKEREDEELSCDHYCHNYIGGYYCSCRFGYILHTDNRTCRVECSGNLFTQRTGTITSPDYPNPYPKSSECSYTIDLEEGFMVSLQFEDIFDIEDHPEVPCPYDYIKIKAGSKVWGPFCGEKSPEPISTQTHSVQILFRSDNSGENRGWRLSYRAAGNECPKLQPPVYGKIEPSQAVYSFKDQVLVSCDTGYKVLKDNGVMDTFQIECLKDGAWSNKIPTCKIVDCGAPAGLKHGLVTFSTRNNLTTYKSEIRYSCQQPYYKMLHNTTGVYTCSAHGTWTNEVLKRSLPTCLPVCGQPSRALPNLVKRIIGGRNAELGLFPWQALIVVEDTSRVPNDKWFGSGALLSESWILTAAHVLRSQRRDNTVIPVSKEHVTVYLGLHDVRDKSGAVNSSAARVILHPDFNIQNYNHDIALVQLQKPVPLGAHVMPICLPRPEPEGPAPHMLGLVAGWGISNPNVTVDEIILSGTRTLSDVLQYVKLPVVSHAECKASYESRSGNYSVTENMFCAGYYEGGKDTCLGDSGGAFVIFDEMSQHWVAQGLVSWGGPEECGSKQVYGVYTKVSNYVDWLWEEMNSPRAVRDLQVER
Kind of assay: sandwich ELISA, full-length mouse MASP-3 captured by αM3-259. As to the method: as §1
With B1, the EC50 (usually the concentration at which the effect is half-maximal) was 3.7 nM.
Still for that read-out and setting: as for B2, the figure is 0.081 nM; as for B3, 0.111 nM.
Take B4: the concentration giving a half-maximal response (EC50) came to 0.098 nM.
Same read-out and setting: the value for B5 was 0.188 nM.

Another assay deals with T3, human MASP-3 CCP1-CCP2-SP fragment. In words: sandwich ELISA, MASP-3 CCP1-CCP2-SP captured by αM3-259. As to the method:
as §1
Molecule B1 yielded an EC50 of 0.177 nM.
Molecule B2 came in with an EC50 of 0.089 nM.
With B3, it took 0.236 nM to reach a half-maximal effect (EC50).
Same read-out and setting: as for B4, the figure is 0.058 nM; as for B5, 0.211 nM.

A further assay deals with T2, human MASP-3 (construct not stated). Kind of assay: cell-based or functional assay. The source holds these as a separate data set.
In the case of B1, the “Inhibition of Factor Bb Deposition on Zymosan (IC50 nM), 10% factor D-depleted human serum with pro-factor D” value worked out at 1.1 nM.
For the molecule B2, the “Inhibition of Factor Bb Deposition on Zymosan (IC50 nM), 10% factor D-depleted human serum with pro-factor D” value was determined as 0.5 nM.
On the same count and under the same terms, as for B3, the figure is 0.1 nM; as for B4, 0.4 nM; as for B5, 0.2 nM.

The next assay addresses T5, recombinant human MASP-1A (S646A, CCP1-CCP2-SP fragment) (human, UniProt P48740 298-699, limits assumed).
T5 chain: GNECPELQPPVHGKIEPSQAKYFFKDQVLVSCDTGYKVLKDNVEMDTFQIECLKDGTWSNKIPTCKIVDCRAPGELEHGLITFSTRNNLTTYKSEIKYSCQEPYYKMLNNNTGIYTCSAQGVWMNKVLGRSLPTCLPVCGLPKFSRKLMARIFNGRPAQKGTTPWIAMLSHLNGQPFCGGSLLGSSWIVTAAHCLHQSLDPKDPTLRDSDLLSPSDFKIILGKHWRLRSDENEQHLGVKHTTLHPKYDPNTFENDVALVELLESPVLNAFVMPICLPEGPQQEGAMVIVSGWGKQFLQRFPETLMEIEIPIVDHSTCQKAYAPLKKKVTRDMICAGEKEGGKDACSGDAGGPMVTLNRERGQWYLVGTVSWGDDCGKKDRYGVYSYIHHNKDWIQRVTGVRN
In words: ELISA: recombinant MASP-1A (S646A, CCP1-CCP2-SP) coated directly on the plate, A450. As to the method: as §1
As to B1, the binding result is “no binding (tested: about 20 nM (log10 about 1.3))”.
Still for that read-out and setting: the value for B2 was “no binding (tested: about 20 nM (log10 about 1.3))”.
The same measure, in the same setting: as for B3, the entry is “no binding (tested: about 20 nM (log10 about 1.3))”.
In the case of B4, the binding result is listed as “no binding (tested: about 20 nM (log10 about 1.3))”.
Same read-out and setting: the value for B5 was “no binding (tested: about 20 nM (log10 about 1.3))”.

The next assay deals with T3, human MASP-3 CCP1-CCP2-SP fragment. In words: sandwich ELISA: human MASP-3 CCP1-CCP2-SP captured on aM3-259, mAb detected with anti-human kappa-HRP, A450. As to the method:
as §1
As for B2, the response was half-maximal at 0.023 nM (EC50).
On to B4, for which it took 0.113 nM to reach a half-maximal effect (EC50).

The target of the next assay is T2, human MASP-3 (construct not stated). In words: ELISA, monovalent Fab.
In turn, B6 returned an EC50 of 0.108 nM.
Consider B7, for which the half-maximal effective concentration (EC50) was found to be 0.107 nM.
